Laboratory results from patent US20170015742A1 (published 2017).

Tests used:
PDGF-BB = PDGF-BB (UniProt P01127 82-190); experiment: SPR (Biacore), DVD-Ig captured by anti-human Fc, antigen in flow
Procedure: (§1) For example, approximately 9000 RU of goat anti-human Fc specific polyclonal antibody (Thermo Fisher Scientific Inc., Rockford, Ill.) diluted in 10 mM sodium acetate (pH 4.5) is directly immobilized across a CM5 research grade biosensor chip using a standard amine coupling kit according to manufacturer's instructions and procedures at 25 μg/ml. Unreacted moieties on the biosensor surface were blocked with ethanolamine. For kinetic analysis, rate equations derived from the 1:1 Langmuir binding model were fitted simultaneously to multiple antigen injections (using global fit analysis) with the use of Scrubber 2 (BioLogic Software), Biacore Biaevaluation 4.0.1 software or Biacore T100 Evaluation software. Purified antibodies or DVD-Ig molecules were diluted in running buffer for capture across goat anti-human Fc reaction surfaces. Antibodies or DVD-Ig molecules to be captured as a ligand (1 μg/ml) were injected over reaction matrices at a flow rate of 10 μl/minute. During the assay, all measurements were referenced against the capture surface alone (i.e., with no captured antibody or DVD-Ig molecule). […] The equilibrium dissociation constant KD (M) of the reaction between antibodies and the target antigen was then calculated from the kinetic rate constants by the following formula: KD=Koff/Kₒₙ. Binding was recorded as a function of time and kinetic rate constants were calculated.

VEGF-A = VEGF-A (UniProt P15692-4 27-191, limits assumed); experiment: as above
Procedure: as §1

Sequence of PDGF-BB (P01127 82-190): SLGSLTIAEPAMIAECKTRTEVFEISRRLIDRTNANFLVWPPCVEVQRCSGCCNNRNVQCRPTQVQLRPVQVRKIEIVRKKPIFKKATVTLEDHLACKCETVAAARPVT
Sequence of VEGF-A (P15692 other isoform, or with tags, fused parts or gaps limits assumed): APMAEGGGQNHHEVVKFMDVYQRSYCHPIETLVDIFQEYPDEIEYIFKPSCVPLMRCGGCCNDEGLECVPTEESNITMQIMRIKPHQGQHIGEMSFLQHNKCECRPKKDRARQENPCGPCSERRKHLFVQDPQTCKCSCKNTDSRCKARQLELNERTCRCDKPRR

Row | Binder | Kd (PDGF-BB) | kon (PDGF-BB) | Kd (VEGF-A) | kon (VEGF-A)
1 | 9E8.4-GS-4G8.3 (PR-1563988) (bispecific antibody, human IgG1, kappa, L234A L235A, DVD-Ig; outer hBDI-9E8.4 (PDGF), linkers GS-H10/GS-L10, inner hBDB-4G8.3 (VEGF); human IgG1 L234A, L235A / kappa) heavy: not shown light: EFVLTQSPGTLSLSPGERATLSCERSSGDIGDSYVSWYQQKPGQAPRLVIYADDQRPSGIPDRFSGSGSGTDFTLTISRLEPEDFAVYYCQSYDINIDIVFGGGTKVEIKGGGSGGGGSGDTVLTQSPATLSLSPGERATLSCRASESVSTHMHWYQQKPGQAPRLLIYGASNLESGVPARFSGSGSGTDFTLTISSLEPEDFAVYFCQQSWNDPFTFGQGTKLEIKRTVAAPSVFIFPPSDEQLKSGTASVVCLLNNFYPREAKVQWKVDNALQSGNSQESVTEQDSKDSTYSLSSTLTLSKADYEKHKVYACEVTHQGLSSPVTKSFNRGEC | 0.02 nM | 1e+07 M⁻¹ s⁻¹ | 0.29 nM | 220000 M⁻¹ s⁻¹
2 | 4G8.3-SL-9E8.4 (PR-1564012) (bispecific antibody, human IgG1, kappa, L234A L235A, DVD-Ig; outer hBDB-4G8.3 (VEGF), linkers HG-short/LK-long, inner hBDI-9E8.4 (PDGF); human IgG1 L234A, L235A / kappa) heavy: not shown light: DTVLTQSPATLSLSPGERATLSCRASESVSTHMHWYQQKPGQAPRLLIYGASNLESGVPARFSGSGSGTDFTLTISSLEPEDFAVYFCQQSWNDPFTFGQGTKLEIKRTVAAPSVFIFPPEFVLTQSPGTLSLSPGERATLSCERSSGDIGDSYVSWYQQKPGQAPRLVIYADDQRPSGIPDRFSGSGSGTDFTLTISRLEPEDFAVYYCQSYDINIDIVFGGGTKVEIKGTVAAPSVFIFPPSDEQLKSGTASVVCLLNNFYPREAKVQWKVDNALQSGNSQESVTEQDSKDSTYSLSSTLTLSKADYEKHKVYACEVTHQGLSSPVTKSFNRGEC | 0.0099 nM | 1.4e+07 M⁻¹ s⁻¹ | 0.013 nM | 3.1e+06 M⁻¹ s⁻¹
3 | 4G8.3-SS-9E8.4 (PR-1564011) (bispecific antibody, human IgG1, kappa, L234A L235A, DVD-Ig; outer hBDB-4G8.3 (VEGF), linkers HG-short/LK-short, inner hBDI-9E8.4 (PDGF); human IgG1 L234A, L235A / kappa) heavy: not shown light: DTVLTQSPATLSLSPGERATLSCRASESVSTHMHWYQQKPGQAPRLLIYGASNLESGVPARFSGSGSGTDFTLTISSLEPEDFAVYFCQQSWNDPFTFGQGTKLEIKRTVAAPEFVLTQSPGTLSLSPGERATLSCERSSGDIGDSYVSWYQQKPGQAPRLVIYADDQRPSGIPDRFSGSGSGTDFTLTISRLEPEDFAVYYCQSYDINIDIVFGGGTKVEIKGTVAAPSVFIFPPSDEQLKSGTASVVCLLNNFYPREAKVQWKVDNALQSGNSQESVTEQDSKDSTYSLSSTLTLSKADYEKHKVYACEVTHQGLSSPVTKSFNRGEC | 0.019 nM | 7.5e+06 M⁻¹ s⁻¹ | 0.013 nM | 3.1e+06 M⁻¹ s⁻¹
4 | 4G8.3-GS(9)-9E8.4 (g) (PR-1572102) (bispecific antibody, human IgG1, kappa, L234A L235A, DVD-Ig; outer hBDB-4G8.3 (VEGF), linkers GS-H10/GS-L10, inner hBDI-9E8.4 (PDGF); human IgG1 L234A, L235A, H435A / kappa; also called 4G8.3-GS-9E8.4 (g); hu VEGF 4G8.3-GS-hu PDGF 9E8.4 (germline) [hu IgG1/k]; LALA H435A) heavy: EVQLVQSGSELKKPGASVKVSCKASGYTFTNYGMYWVRQAPGQGLEWMGWINTETGKPTYADDFKGRFVFSLDTSVSTAYLQISSLKAEDTAVYYCARTNYYYRSYIFYFDYWGQGTMVTVSSGGGGSGGGGSEVTLRESGPALVKPTQTLTLTCTFSGFSLSTYGMGVGWIRQPPGKALEWLANIWWDDDKYYNPSLKNRLTISKDTSKNQVVLTMTNMDPVDTATYYCARIESIGTTYSFDYWGQGTMVTVSSASTKGPSVFPLAPSSKSTSGGTAALGCLVKDYFPEPVTVSWNSGALTSGVHTFPAVLQSSGLYSLSSVVTVPSSSLGTQTYICNVNHKPSNTKVDKKVEPKSCDKTHTCPPCPAPEAAGGPSVFLFPPKPKDTLMISRTPEVTCVVVDVSHEDPEVKFNWYVDGVEVHNAKTKPREEQYNSTYRVVSVLTVLHQDWLNGKEYKCKVSNKALPAPIEKTISKAKGQPREPQVYTLPPSREEMTKNQVSLTCLVKGFYPSDIAVEWESNGQPENNYKTTPPVLDSDGSFFLYSKLTVDKSRWQQGNVFSCSVMHEALHNAYTQKSLSLSPGK light: DTVLTQSPATLSLSPGERATLSCRASESVSTHMHWYQQKPGQAPRLLIYGASNLESGVPARFSGSGSGTDFTLTISSLEPEDFAVYFCQQSWNDPFTFGQGTKLEIKRGGSGGGGSGEFVLTQSPGTLSLSPGERATLSCERSSGDIGDSYVSWYQQKPGQAPRLVIYADDQRPSGIPDRFSGSGSGTDFTLTISRLEPEDFAVYYCQSYDINIDIVFGGGTKVEIKRTVAAPSVFIFPPSDEQLKSGTASVVCLLNNFYPREAKVQWKVDNALQSGNSQESVTEQDSKDSTYSLSSTLTLSKADYEKHKVYACEVTHQGLSSPVTKSFNRGEC | 0.013 nM | 1.3e+07 M⁻¹ s⁻¹ | 0.013 nM | 6e+06 M⁻¹ s⁻¹
5 | 4G8.3-GS(noR)-9E8.4 (g) (PR-1572104) (bispecific antibody, human IgG1, kappa, L234A L235A, DVD-Ig; outer hBDB-4G8.3 (VEGF), linkers GS-H10/GS-L10(dR), inner hBDI-9E8.4 (PDGF); human IgG1 L234A, L235A, H435A / kappa) heavy: EVQLVQSGSELKKPGASVKVSCKASGYTFTNYGMYWVRQAPGQGLEWMGWINTETGKPTYADDFKGRFVFSLDTSVSTAYLQISSLKAEDTAVYYCARTNYYYRSYIFYFDYWGQGTMVTVSSGGGGSGGGGSEVTLRESGPALVKPTQTLTLTCTFSGFSLSTYGMGVGWIRQPPGKALEWLANIWWDDDKYYNPSLKNRLTISKDTSKNQVVLTMTNMDPVDTATYYCARIESIGTTYSFDYWGQGTMVTVSSASTKGPSVFPLAPSSKSTSGGTAALGCLVKDYFPEPVTVSWNSGALTSGVHTFPAVLQSSGLYSLSSVVTVPSSSLGTQTYICNVNHKPSNTKVDKKVEPKSCDKTHTCPPCPAPEAAGGPSVFLFPPKPKDTLMISRTPEVTCVVVDVSHEDPEVKFNWYVDGVEVHNAKTKPREEQYNSTYRVVSVLTVLHQDWLNGKEYKCKVSNKALPAPIEKTISKAKGQPREPQVYTLPPSREEMTKNQVSLTCLVKGFYPSDIAVEWESNGQPENNYKTTPPVLDSDGSFFLYSKLTVDKSRWQQGNVFSCSVMHEALHNAYTQKSLSLSPGK light: DTVLTQSPATLSLSPGERATLSCRASESVSTHMHWYQQKPGQAPRLLIYGASNLESGVPARFSGSGSGTDFTLTISSLEPEDFAVYFCQQSWNDPFTFGQGTKLEIKGGSGGGGSGGEFVLTQSPGTLSLSPGERATLSCERSSGDIGDSYVSWYQQKPGQAPRLVIYADDQRPSGIPDRFSGSGSGTDFTLTISRLEPEDFAVYYCQSYDINIDIVFGGGTKVEIKRTVAAPSVFIFPPSDEQLKSGTASVVCLLNNFYPREAKVQWKVDNALQSGNSQESVTEQDSKDSTYSLSSTLTLSKADYEKHKVYACEVTHQGLSSPVTKSFNRGEC | 0.0089 nM | 1.5e+07 M⁻¹ s⁻¹ | 0.011 nM | 6.1e+06 M⁻¹ s⁻¹
6 | 4G8.3-GS-9E8.4 (PR-1564010) (bispecific antibody, human IgG1, kappa, L234A L235A, DVD-Ig; outer hBDB-4G8.3 (VEGF), linkers GS-H10/GS-L10, inner hBDI-9E8.4 (PDGF); human IgG1 L234A, L235A / kappa) heavy: not shown light: DTVLTQSPATLSLSPGERATLSCRASESVSTHMHWYQQKPGQAPRLLIYGASNLESGVPARFSGSGSGTDFTLTISSLEPEDFAVYFCQQSWNDPFTFGQGTKLEIKRGGSGGGGSGEFVLTQSPGTLSLSPGERATLSCERSSGDIGDSYVSWYQQKPGQAPRLVIYADDQRPSGIPDRFSGSGSGTDFTLTISRLEPEDFAVYYCQSYDINIDIVFGGGTKVEIKGTVAAPSVFIFPPSDEQLKSGTASVVCLLNNFYPREAKVQWKVDNALQSGNSQESVTEQDSKDSTYSLSSTLTLSKADYEKHKVYACEVTHQGLSSPVTKSFNRGEC | 0.013 nM | 1e+07 M⁻¹ s⁻¹ | 0.017 nM | 3.3e+06 M⁻¹ s⁻¹

The next lines start with the values.

Row | Kd (PDGF-BB) | kon (PDGF-BB) | Kd (VEGF-A) | kon (VEGF-A) | Binder
7 | 0.02 nM | 1e+07 M⁻¹ s⁻¹ | 0.78 nM | 160000 M⁻¹ s⁻¹ | 9E8.4-SS-4G8.3 (PR-1563990) (bispecific antibody, human IgG1, kappa, L234A L235A, DVD-Ig; outer hBDI-9E8.4 (PDGF), linkers HG-short/LK-short, inner hBDB-4G8.3 (VEGF); human IgG1 L234A, L235A / kappa) heavy: not shown light: EFVLTQSPGTLSLSPGERATLSCERSSGDIGDSYVSWYQQKPGQAPRLVIYADDQRPSGIPDRFSGSGSGTDFTLTISRLEPEDFAVYYCQSYDINIDIVFGGGTKVEIKGTVAAPDTVLTQSPATLSLSPGERATLSCRASESVSTHMHWYQQKPGQAPRLLIYGASNLESGVPARFSGSGSGTDFTLTISSLEPEDFAVYFCQQSWNDPFTFGQGTKLEIKRTVAAPSVFIFPPSDEQLKSGTASVVCLLNNFYPREAKVQWKVDNALQSGNSQESVTEQDSKDSTYSLSSTLTLSKADYEKHKVYACEVTHQGLSSPVTKSFNRGEC
8 | 0.02 nM | 1e+07 M⁻¹ s⁻¹ | 0.2 nM | 270000 M⁻¹ s⁻¹ | 9E8.4-LS-4G8.3 (PR-1564009) (bispecific antibody, human IgG1, kappa, L234A L235A, DVD-Ig; outer hBDI-9E8.4 (PDGF), linkers HG-long/LK-short, inner hBDB-4G8.3 (VEGF); human IgG1 L234A, L235A / kappa) heavy: not shown light: EFVLTQSPGTLSLSPGERATLSCERSSGDIGDSYVSWYQQKPGQAPRLVIYADDQRPSGIPDRFSGSGSGTDFTLTISRLEPEDFAVYYCQSYDINIDIVFGGGTKVEIKGTVAAPDTVLTQSPATLSLSPGERATLSCRASESVSTHMHWYQQKPGQAPRLLIYGASNLESGVPARFSGSGSGTDFTLTISSLEPEDFAVYFCQQSWNDPFTFGQGTKLEIKRTVAAPSVFIFPPSDEQLKSGTASVVCLLNNFYPREAKVQWKVDNALQSGNSQESVTEQDSKDSTYSLSSTLTLSKADYEKHKVYACEVTHQGLSSPVTKSFNRGEC
9 | 0.019 nM | 1e+07 M⁻¹ s⁻¹ | 0.12 nM | 700000 M⁻¹ s⁻¹ | 9E8.4-SL-4G8.3 (PR-1563998) (bispecific antibody, human IgG1, kappa, L234A L235A, DVD-Ig; outer hBDI-9E8.4 (PDGF), linkers HG-short/LK-long, inner hBDB-4G8.3 (VEGF); human IgG1 L234A, L235A / kappa) heavy: not shown light: EFVLTQSPGTLSLSPGERATLSCERSSGDIGDSYVSWYQQKPGQAPRLVIYADDQRPSGIPDRFSGSGSGTDFTLTISRLEPEDFAVYYCQSYDINIDIVFGGGTKVEIKGTVAAPSVFIFPPDTVLTQSPATLSLSPGERATLSCRASESVSTHMHWYQQKPGQAPRLLIYGASNLESGVPARFSGSGSGTDFTLTISSLEPEDFAVYFCQQSWNDPFTFGQGTKLEIKRTVAAPSVFIFPPSDEQLKSGTASVVCLLNNFYPREAKVQWKVDNALQSGNSQESVTEQDSKDSTYSLSSTLTLSKADYEKHKVYACEVTHQGLSSPVTKSFNRGEC
